Assay results published in PMC11912406 (Proceedings of the National Academy of Sciences of the …, 2025).
Where two headings read alike, the source gives them in different places.

T1: cell-surface, GPI-anchored murine JUNO on HEK293F cells (murine, UniProt Q9EQF4 20-222)
T1 sequence: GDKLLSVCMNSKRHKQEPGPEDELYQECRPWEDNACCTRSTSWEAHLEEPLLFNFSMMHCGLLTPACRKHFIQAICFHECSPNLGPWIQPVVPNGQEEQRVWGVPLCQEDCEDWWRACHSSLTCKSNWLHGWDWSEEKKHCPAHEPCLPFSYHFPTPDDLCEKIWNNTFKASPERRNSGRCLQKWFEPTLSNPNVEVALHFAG


Assays:
[1] = target: cell-surface, GPI-anchored hamster JUNO on HEK293F cells (hamster); assay: flow cytometry on cells
[2] = target: cell-surface, GPI-anchored murine JUNO on HEK293F cells (murine) (UniProt Q9EQF4); assay: flow cytometry on cells
[3] = target: recombinant murine IZUMO1-human Fc fusion protein (murine) (UniProt Q9D9J7); assay: BLI
[4] = target: IZUMO1-Fc prebound to OBF13 (IgM) (murine) (UniProt Q9D9J7); assay: BLI
[5] = target: IZUMO1-Fc prebound to OBF13^HAC (scFv) (murine) (UniProt Q9D9J7); assay: BLI
[6] = target: cell-surface, GPI-anchored hamster JUNO on HEK293F cells (hamster); assay: flow cytometry on cells; remark: listed apart in the source
[7] = target: T1, cell-surface, GPI-anchored murine JUNO …; assay: flow cytometry on cells

Kd [3] [nM] | fold decrease in kon against IZUMO1 alone [4] [fold] | fold decrease in kon against IZUMO1 alone [5] [fold] | Molecule | other results
– | – | – | IZUMO1-Fc prebound to OBF13 (IgM) (from UniProt Q9D9J7 22-319) (complex) | EC50 [1]: 1.4 nM; EC50 [2]: 551 nM
659 | 2 | 2 | hamster JUNO ectodomain (domain or fragment) | –
11000 | 3 | 3 | murine JUNO ectodomain (domain or fragment) | Kd [4]: 30100 nM; Kd [5]: 33800 nM
– | – | – | recombinant murine IZUMO1-human Fc fusion protein (Fc fusion) CIKCDQFVTDALKTFENTYLNDHLPHDIHKNVMRMVNHEVSSFGVVTSAEDSYLGAVDENTLEQATWSFLKDLKRITDSDLKGELFIKELLWMLRHQKDIFNNLARQFQKEVLCPNKCGVMSQTLIWCLKCEKQLHICRKSLDCGERHIEVHRSEDLVLDCLLSWHRASKGLTDYSFYRVWENSSETLIAKGKEPYLTKSMVGPEDAGNYRCVLDTINQGHATVIRYDVTVLPPKHSEENQPPNIITQEEHETPVHVTPQTPPGQEPESELYPELHPELYPELIPTVAQNPEKKMKTR | EC50 [6]: 0.198 nM; EC50 [7]: 10.7 nM
